Target: GST-tagged βI spectrin N-terminal fragment, residues 1 to 301 (UniProt P11277)
Assay: pull-down

Sequence of UniProt P11277 (P11277 1-301): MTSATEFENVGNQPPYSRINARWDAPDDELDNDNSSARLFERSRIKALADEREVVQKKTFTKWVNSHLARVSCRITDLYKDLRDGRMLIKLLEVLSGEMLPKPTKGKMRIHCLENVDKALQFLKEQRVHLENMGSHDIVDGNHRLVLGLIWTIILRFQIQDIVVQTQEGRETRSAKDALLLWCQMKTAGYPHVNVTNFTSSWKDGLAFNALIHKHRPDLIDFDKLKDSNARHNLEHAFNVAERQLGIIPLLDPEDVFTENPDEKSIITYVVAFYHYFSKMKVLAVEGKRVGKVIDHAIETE

“His-tagged 4.1R-S312A, phosphorylated in vitro by the catalytic subunit of PKC (natural protein)” gave a reduction of binding against the unphosphorylated protein of 30%.

In the case of “His-tagged 4.1R-S331A, phosphorylated in vitro by the catalytic subunit of PKC (natural protein)”, the reduction of binding against the unphosphorylated protein was 30%.

— PMC4409870
